Experimental data reported in the nanobody polyreactivity screen of Harvey et al. (2022).

Test: yeast display, Sf9 membrane polyspecificity reagent, FACS + sequencing; frameworks hold sequencing errors
Procedure, shortened: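 Genes from sorted yeast were amplified by colony PCR, read by MiSeq 2 × 250 sequencing and filtered on CDR length. These cells carried a synthetic nanobody library in Saccharomyces cerevisiae BJ5465 and were sorted by FACS into low and high (top ~1%) gates on anti-HA and streptavidin fluorescence. Polyreactivity is labelled according to the gate of origin.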

| Sequence | polyreactivity (PSR sort gate) |
| --- | --- |
| QVQLVESGGGLGQAGGSLRLSCAASGRTFRLYAMGCYRQAPGKERELVASITSTGRTYYADSVKGRFTISRDNAKNTVYLQMNSLKPEDTAVYYCNAVALSNCEYDYWGQGTQVTVSS | high polyreactivity |
| QVQLVESGGGLGQAGGSLRLSCAASGRTFYIYAMGWYRQAPGKERELVAANTWSTGGTYYADSVKGRFTISRDNAKNTVYLQMNSLKPEDTAVYYCAAGYDYKSTRHYYWGQGTQVTVSS | high polyreactivity |
| QVQLVESGGGLGQAGGSLRLSCAASGRTLGIYAMGWYRPAPGTERELVAAITNGDSTHYADSVKGRFTISRDNAKNTVYLQMNSLKPEDTAVYYCAAEDHYEGYGGYYWGQGTQVTVSS | low polyreactivity |
| QVQLVESGGGLGQAGGSLRLSCAASGSIFERNAMGWYRQAPGKERELVAAISSSGVSTYYADSVKGRFTISRDNAKNTVYLQMNSLKPEDTAVYYCNAVWRLRVRYGYWGQGTQVTVSS | high polyreactivity |
| QVQLVESGGGLGQAGGSLRLSCAASGSIFGRYAMGWYRQAPGKERELVTVITSGGSTNYADSVKGRFTISRDNAKNTVYLQMNSVKPEDTAVFYCAVRPYELHRLADQHGGDDYWGQGTQVTVSS | low polyreactivity |
| QVQLVESGGGLGQAGGSLRLSCAASGSIFHPYAMGWYRQAPGKERELVASITSSGGSTYYADSVKGRFTISRDTAKNTVYLQMNSMKPEDTAVYYCNAQFLVYFYWYSTTAYIMYYWGQGTQVTVSS | low polyreactivity |
| QVQLVESGGGLGQAGGSLRLSCAASGSIFYSYAMGSYRQATGKERELVAAINWSGGSTYYADSVKGRFTISRDNAKNTVSLLMNSLKPEDTAVYYCAAGPGDSGDDYWGQCTQVTVSS | low polyreactivity |
| QVQLVESGGGLGQAGGSLRLSCAASGSTFYKYAMGWYRQAPGKERELVASITWSGTSTYYADSVKGRFTISRDNQKNTVFLQMNSLKAEDTAVYYCAAPKLDDYDYWGQGTQVTVSS | low polyreactivity |
| QVQLVESGGGLGQAGGSLRLSCAASGYIFPIYAMGWYRQAPGKERELVAAITESGGSTYYADSVKGRFTISRDNAKNTVYLQMNSLKQEDTAVYYCAKEVVKHPRGKLDYWGQGTQVTLSS | low polyreactivity |
| QVQLVESGGGLGQAGGSLRLSCAASGYTFARNAMGWYRQAPGKEREMVAAINWSGTNTYYADSVKGRFTISRDNAKNTVYLQMNSLKPEDTAVYYCAKDLYFSGYEFDYWGQGTQVTVSS | low polyreactivity |
| QVQLVESGGGLGQAGGSLRLSSAASGRTFVFYAMGWYIQAPGKERELVAAITSSGGRTYYADSVKGRFTISRDNAKNTVYLQMNSLKPEDTAVYYCAAPYYPYKYDSWGQGTQVTGSS | low polyreactivity |
| QVQLVESGGGLGQAVGRLRLSCAASGSTFDPNTMGWYRQAPGKERELVATITSVDSTNYADSVKGRFTISRDNAKNTVYLQMNSLKPEDTAVSYCNAAYGGVFFYAYDYWGQGTQVTVSS | low polyreactivity |
| QVQLVESGGGLIQAGGSLRLSCAASGIIFYPYTMGWYRQAPGKERELVAAIRQSGTSTYYADSVKGRFTISRDNAKNTVYLQMNSLKPEDTAVYYCNADDHIYWRKGYDYWGQGTQVTVSS | low polyreactivity |
| QVQLVESGGGLLHAGGSLRLSCAASGRTFPSYAMGWYRQAPGKERELVAAISSRGSRTYYADSVKGRFTISRDNAKNTVYLQMYSLKPEDTAVYYCAAKNLWTRKSRYDYWGQGTQVTVSS | high polyreactivity |
| QVQLVESGGGLLKAGGSLRLSCAASGFTVDGYGMGWYRQAPGKERELVAVITSGGSTKYADSVKGRYTISRDNAKITVYLQMKSLKPEDTAVYYCNVVGGRYLYSAYDYWGQGTQVTVSS | low polyreactivity |
| QVQLVESGGGLLKAGGSLRLSCAASRITFYIYPIVWYRQAPGKERELVATISWSDGRTYYADSVKGRFTISRDNAEHTVYLQLYSLKPEDTAVYYCAADWWYYQFDYEYWGQGTPVTVSS | low polyreactivity |
| QVQLVESGGGLLLAGGSLRLSCAASGNIFRANTRGWYRQAPGKERELVASIRRSGGSTYYADSVKGRFTISRDNAKNTVYLQMNSLKPEDTAVYYCAAKSRPPYTDNYYWGQGTQVTVSS | high polyreactivity |
| QVQLVESGGGLLQAAGSLSLSCAASGSIFKYYAMGWYRQAPGKERELVAAISASGGSTSYADSVKGRFTISRDNAKNTVYLQMNSLKPEDTAVYYCAADGVSYAYRYDYWGQGTQVTVSS | low polyreactivity |
| QVQLVESGGGLLQAGGRLRLSCAASGSIFAAYTMGWYRQAPWKERELVAAISVSTVSTYYADSVKGRFTISRDNAKITVYLQMNSLKPEDTAVYYCNADPTDSYPQKYEHDSWGQGTQVTVSS | low polyreactivity |
| QVQLVESGGGLLQAGGSLPLSCAASGRIFHQYAMGWYRQAPGKERELVAAISKTGTRTYYADSVKGRFTISRDNAKNTVYFQINSLKPDDTAVYYCNALYWTVYSREYDYWGQATQVTVSS | high polyreactivity |
| QVQLVESGGGLLQAGGSLPLSCAASGSIFPGYAMGWYRQAPGKERELVATITWSGGSTYYADSVKGRFTISRDNAKNTVYLQMNSLNPADTAVYYCNADSNWYYQWNYYGLYDYWGQATQVTVSS | low polyreactivity |

| Sequence | polyreactivity (PSR sort gate) |
| --- | --- |
| QVQLVESGGGLLQAGGSLRISCAASGIIFRLYDMAWYRQAPGKERELVAAISSGGSTYYADSVKGRFTISRDNAKNTVYLQMNSLKPVDTAVYYCNARVRYKRTGRYGYWGQVTQVTVSS | high polyreactivity |
| QVQLVESGGGLLQAGGSLRISCAASGSTFGVYAMGWYIPAPGKERELVAVIRRGGGTDYADSVKGRYTISRDNAKNTVYLQLDSLIPVDTAVYSCAATVVRTGYLTLEMDYWGQGTQVTVSA | low polyreactivity |
| QVQLVESGGGLLQAGGSLRLICAASGSTFSTNAMGWYRQAPGKERELVAAISRSGGSTNYADSVKGRFTISRDNAKNTVYLQMNSLKPEDTAVYYCARYSYRGTNVRYDYWGQGTQVTVSS | high polyreactivity |
| QVQLVESGGGLLQAGGSLRLSCAASGFIFRRNAMGWYIQAPGKEREFVASISKSSDLTYYADSVKGRFRISRDNAKNTVYLQMNSLKPEVTAVYYCAAKVRQWRHGSYSSQYDYWGQGTQVTVSS | high polyreactivity |
| QVQLVESGGGLLQAGGSLRLSCAASGFTIDRYAMGWYRQAPGKERELVAAISWGGGSTYYAVSVKGRFTISRDNAKNTVYLQMNSLKPEDTAVYYCAASRGFYHPKYESWGQGTQVTVSS | high polyreactivity |
| QVQLVESGGGLLQAGGSLRLSCAASGFTIYGYGMGWYRQAPGKERELVAGITARGSSTYYADSVKGRFTISRDNAKNTVYLQMNSLKPEDTAVYYCNSVGARVASATGMEYWGQGTQVTVSS | high polyreactivity |
| QVQLVESGGGLLQAGGSLRLSCAASGGMFKYNAMGWYRQAPRKARELVPAINYSGGRTYYADSVKGRFTISRDNAKNTVYLQMTSLKPEDTAVDYCNALTRGHTGQPYTYDYWGQGTQVTVSS | high polyreactivity |
| QVQLVESGGGLLQAGGSLRLSCAASGGTFERNAMGWYRQAPGKERELVAAISISGGRTYYADSVKGRFTISRDNAKNTVYLQMKSLKPEDTAVYFCAAGVGSRIKQVGNDYWGQGTQVTVSS | high polyreactivity |
| QVQLVESGGGLLQAGGSLRLSCAASGIIFFYYSMGWYRQAPGKERELVAAISSDGSTYYADSVKGRFTSSRDNAKNTVYLQMNSLKPEDTAVDYCAAQYNHWWEYDYWGQGTQVTVSS | low polyreactivity |
| QVQLVESGGGLLQAGGSLRLSCAASGIIFSDYAMGRYRQAPRKERELVAAITSSGGSTYYADSVKGRFTISRDNAKNTVYLQMNSLKPEDPAVYYCAAQCYDYWYDYDYWGQGTQVTVSS | high polyreactivity |
| QVQLVESGGGLLQAGGSLRLSCAASGIILYWNTMGWYRQAPGKERELVAAITWSVGRTYYADSVKGRFTISRDNAKNTVYLQMNSLKPEDTAVYYCNAGYDSYSRDYWGQGTQVTVSS | low polyreactivity |
| QVQLVESGGGLLQAGGSLRLSCAASGITFQGYAMGWYRQAPGKERELVAAITYRGGSTYYADSVKGRFTISRDNAKNTVYLQMNSLKPEDTAVYYCARDHSRHLHPSWLDYWGQGTQVTVSS | high polyreactivity |
| QVQLVESGGGLLQAGGSLRLSCAASGITFTGYAMGWYRQAPGKERELVAVISETGGSTYADSVKGRFTISRDNAKNTVYLQMNSLKPEDTAVYYCAARLWWPYSTAWAKMDYWGQGTQVTVSS | low polyreactivity |
| QVQLVESGGGLLQAGGSLRLSCAASGLIFANYAMGWYRQAPGKERELVAAITWSGGTTYYADSVKGRFTISRDNAKNTVYLQMNSLKPEDTAVYYCAAEVPYYQAAEYDYWGQGTQVTVSS | low polyreactivity |
| QVQLVESGGGLLQAGGSLRLSCAASGNIFYRYAMGWYRQAPGKERELVAAISGNSGNTYYADSVKGRFTISRDNAKNTVYLQIHSLNPEDTAVYYSAAERRAFGHYSGGQGTQVTVSS | high polyreactivity |
| QVQLVESGGGLLQAGGSLRLSCAASGNTFITNAKGWYRQAPGKERDLVAAISSGGTTYYADSVKGRFTISRDTAKNTVYLQMYSLKPEDTAVYYCATDIHSVHNNRDKHDYDYWGQGTQVTVSS | low polyreactivity |
| QVQLVESGGGLLQAGGSLRLSCAASGRIFAQYAMGWYRQAPGKEREFDAGISTTGGSTYYADSVKGRFTISRDNAKNTVYLQMNSLKPEETAVYYCAADRRDRSPFYYWGQGTQVTVSS | high polyreactivity |
| QVQLVESGGGLLQAGGSLRLSCAASGRIFGSYAMGWYRQAPGKERELVAGIRSVGSTNYADSVKGRFTISRDNAKNTVYLQMNSLKPEDTAVYYCAARLWHLSYAGQGGDYWGQGTQVTVSS | low polyreactivity |
| QVQLVESGGGLLQAGGSLRLSCAASGRIFTWNAMGWYRQAPGKERELVARISSGTPTNYADSLKGRFTISRDNAKNTVYLQMNCLKPEDTAVYYCAAQSRPPFVKQYWWQRDYWGQATQVTVSS | high polyreactivity |
| QVQLVESGGGLLQAGGSLRLSCAASGRIFVNYAMGWYRQAPGKERELVAVISRSGGGTNYADSVKGRFTISRDNAKNTVYLQMNSLKQEDTAVYYCAADSYYYPYDYWGQGTQVTVSS | high polyreactivity |
